1 molecule from patent publication US20250333441A1, “POLYPEPTIDE INHIBITORS AND USES THEREOF” (Neuracle Science Co., Ltd., priority 2021, published 2025) can be followed below.

Assay [1] relates to APP/PS1 mice (Alzheimer mouse model). Kind of assay: Synaptic formation in hippocampal CA1 and CA3 of APP/PS1 mice. It counts as in vivo. As to conditions: 30 mg/kg intravenous, four consecutive weeks; compared to mutant LRRC4B protein fragment. The procedure:
FIGS. 16A, 16B, and 16C show the ability of LRRC4B peptide fragment (amino acid residues 453-576 of SEQ ID NO: 2; “WT”) (i.e., SEQ ID NO: 7) to promote synaptic formation in the hippocampal CA1 of APP/PS1 mice. As further described in Example 8, APP/PS1 mice were treated with the LRRC4B peptide fragment (30 mg/kg; intravenous administration) for four consecutive weeks, and then synaptic formation was assessed by fluorescence microscopy using antibodies against SYP and PSD95. Control animals received no treatment (“Cont”) or the mutant LRRC4B peptide fragment […] (i.e., comprising alanine substitutions at positions 488 and 489 of SEQ ID NO: 2; SEQ ID NO: 16). FIG. 16A provides representative fluorescent photomicrographs. FIGS. 16B and 16C show the SYP and PSD95 intensity, respectively.
FIGS. 17A, 17B, and 17C show the ability of LRRC4B peptide fragment (amino acid residues 453-576 of SEQ ID NO: 2; “WT”; SEQ ID NO: 7) to promote synaptic formation in the hippocampal CA3 of APP/PS1 mice. The animals were treated and analyzed as described in FIGS. 16A-16C. FIG. 17A provides representative fluorescent photomicrographs. FIGS. 17B and 17C show the SYP and PSD95 intensity, respectively.
Additionally, to confirm the above effect on neurite outgrowth in vivo, APP/PS1 mice (Alzheimer mouse model) were used. […] Hong et al., Science 352(6286): 712-716 (May 2016). […]

Assay [2] has as its system mouse primary cortical neurons. In words: Neurite growth of primary cortical neurons (beta-tubulin III immunostaining). The class given is cell-based. As to conditions: 0.006 to 60 nM; day 3 post-initial culture; versus DMSO control. The procedure:
Next, primary cortical neurons (day 1 postnatal) were cultured in vitro with varying concentrations (0.006 to 60 nM) of the LRRC4B (453-576) protein fragment (i.e., amino acid residues 453-576 of SEQ ID NO: 2; SEQ ID NO: 7), and then at day 3 post-initial culture, the effect on neurite growth was assessed by immunostaining the cells with anti-beta-tubulin III antibody. Cells cultured with DMSO (“Veh”) were used as control.
Mouse hippocampal neurons were treated with LRRC4B peptides at 1 and 2 DIV to determine neurite growth. It was measured by using 3 different parameters, which are total neurites length, number of primary and secondary neurites. After the neurons were stained with beta-tubulin III at 3 DIV, neurites length and branch points were measured using Fiji (Image J, NIH, Bethesda). Individual neurons were selected by hand and these parameters were counted using the Simple neurite tracer plugin. Mouse spinal motor neurons sampled at postnatal day 1 were treated with 10 nM of NS101 and LRRC4B-peptides (dFB-dWY-JM31 and dFB-DY-JM31) at 1 and 2 DIV and immunostained with Tau-5 antibody at 3 DIV. Total neurite length and number of somas in images were measured by Neurphology Image J plugin.

For assay [3], the target named is binding of FAM19A5 protein to full-length ectodomain of the LRRC4B protein (amino acids 36-576)-hFc (Homo sapiens, UniProt Q7Z5A7). Kind of assay: Competitive inhibition assay, plate coated with full-length LRRC4B ectodomain. As to conditions: 100 nM coated ectodomain; FAM19A5 5 ng/mL; increasing concentrations. The protocol:
Next, to further assess the role that the binding domain of the LRRC4B protein has on the interaction between FAM19A5 protein and members of the LRRC4 protein family, a competitive inhibition assay was used to determine whether different LRRC4B deletion constructs from Example 2 could inhibit the binding of FAM19A5 to the full-length ectodomain of the LRRC4B protein (i.e., amino acids 36-576 of SEQ ID NO: 2; SEQ ID NO: 5). Briefly, 100 nM of the full-length ectodomain of the LRRC4B protein was used to coat a plate, and then recombinant FAM19A5 protein (5 ng/mL) was added to the plate in combination with the following LRRC4B deletion constructs (increasing concentrations): (1) LRRC4B (453-576) (i.e., construct #11 in Table 6); (2) LRRC4B (453-576) mutant (comprises alanine substitutions at positions 488 and 489 of SEQ ID NO: 2; SEQ ID NO: 16); (3) LRRC4B (484-576) (i.e., construct #12 in Table 6); (4) LRRC4B (482-576); (5) LRRC4B (482-497); and (6) LRRC4B (498-576). The plates were incubated at 37° C., and then, the amount of FAM19A5 bound to the coated LRRC4B ectodomain protein was measured using H1RP-conjugated anti-FAM19A5 (1-65) antibody. […]

Sequence of binding of FAM19A5 protein to full-length ectodomain of the LRRC4B protein (amino acids 36-576)-hFc (Q7Z5A7 44-132): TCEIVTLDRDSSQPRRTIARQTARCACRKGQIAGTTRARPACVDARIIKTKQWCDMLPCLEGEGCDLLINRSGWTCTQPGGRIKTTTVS

B1: LRRC4B (453-576): LRRC4B fragment, amino acids 453-576 of SEQ ID NO: 2 (SEQ ID NO: 7); used hFc-fused (protein)
chain: VSAVDPVAAGGTGSGGGGPGGSGGVGGGSGGYTYFTTVTVETLETQPGEEALQPRGTEKEPPGPTTDGVWGGGRPGDAAGPASSSTTAPAPRSSRPTEKAFTVPITDVTENALKDLDDVMKTTK
modifications: human Fc fusion in use
notes: used hFc-fused
For B1, the “SYP and PSD95 immunoreactivities in CA1 and CA3” value in assay [1] was “increased SYP and PSD95 immunoreactivities”. Moreover, the neurite growth result in assay [2] is “increased neurite growth in a dose-dependent manner”. The “inhibition of FAM19A5 binding to coated full-length LRRC4B ectodomain protein” value in assay [3] is on record as “able to inhibit FAM19A5 protein from binding”.
